Reference: publication PMC10272835, “Exploration of T cell immune responses by expression of a dominant-negative SHP1 and SHP2” (Frontiers in Immunology, 2023)

What was measured:
[1] = target: phosphorylated PD1 ITIM peptide; assay: ELISA; peptides coated at 0.5 µg/ml on Nunc MaxiSorp plates; His-tagged SH2 protein from 10 µg/ml with 1:3 serial dilutions in PBS 0.5% BSA; detected with anti-His-tag antibody, absorbance at 450 nm
[2] = target: phosphorylated PD1 ITSM peptide; assay: as above

Row | Substance | EC50 [1] | EC50 [2]
1 | N-terminal SH2 domain of SHP2 (domain or fragment) | 12 nM | 4.58 nM
2 | dual SH2 domains of SHP2 (domain or fragment) | 1.69 nM | 1.24 nM
3 | dual SH2 domains of SHP1 (domain or fragment) | 21.4 nM | 15.3 nM
4 | C-terminal SH2 domain of SHP2 (domain or fragment) | 5.56 nM | 1.85 nM
5 | C-terminal SH2 domain of SHP1 (domain or fragment) | 33.7 nM | 1.69 nM
